Measurements reported in US20040018971A1 (published 2004).
One block for each binder: values may come before it.

How the values were obtained:
[1] = target: T1, HLA-A*0301 (purified HLA class I molecule) (human); assay: competition with 125I-labelled probe peptide for purified HLA-A*0301, gel filtration
T1 construct: also called HLA-A3

[2] = target: HLA-A*0301 (purified HLA class I molecule) (human); assay: competition with 125I-labelled probe peptide on purified HLA-A*0301, gel filtration
HLA-A*0301 = target: T2, HLA-A*0301 (human); assay: inhibition of 125I-labelled probe peptide binding to purified HLA-A*0301, gel filtration; ratio to standard peptide 941.12 [..] (11 nM)
T2 construct: also called HLA-A3

HLA-B*5401 [3] = target: HLA-B*5401 (human); assay: competition vs 125I-labelled probe peptide, purified HLA, gel filtration
HLA-B*5101 [4] = target: HLA-B*5101 (human); assay: as above
HLA-B*3501 [5] = target: HLA-B*3501 (human); assay: as above
HLA-B*0702 [6] = target: HLA-B*0702 (human); assay: as above
HLA-B*5301 [7] = target: HLA-B*5301 (human); assay: as above
HLA-B*3501 [8] = target: HLA-B*3501 (human); assay: competition with 125I probe peptide, purified HLA
HLA-B*5301 [9] = target: HLA-B*5301 (human); assay: competition with 125I probe peptide, purified HLA
HLA-B*5401 [10] = target: HLA-B*5401 (human); assay: competition with 125I probe peptide, purified HLA
HLA-B*5101 [11] = target: HLA-B*5101 (human); assay: competition with 125I probe peptide, purified HLA
HLA-B*0702 [12] = target: HLA-B*0702 (human); assay: competition with 125I probe peptide, purified HLA

Binder: TLIDTNRSR (Synthetic peptide) [HER2/NEU A03 motif peptide, position 182, 9 amino acids]
relative binding ratio (IC50 of standard peptide / IC50 of test peptide) [2]: 0.0004 ratio

Binder: SSEDCQSLTR (Synthetic peptide) [HER2/NEU A03 motif peptide, position 208, 10 amino acids]
relative binding ratio (IC50 of standard peptide / IC50 of test peptide) [2]: -0.0002 ratio

Binder: RLLDIDETEY (Synthetic peptide) [HER2/NEU A03 motif peptide, position 868, 10 amino acids]
relative binding ratio (IC50 of standard peptide / IC50 of test peptide) [2]: 0.0017 ratio

Binder: RGTQLFEDNY (Synthetic peptide) [HER2/NEU A03 motif peptide, position 103, 10 amino acids]
relative binding ratio (IC50 of standard peptide / IC50 of test peptide) [2]: 0.0003 ratio

Binder: CTGTDMKLR (also called Her2/neu.26 9-mer) [HER2/neu peptide, position 26, 9 amino acids (CTGTDMKLR)]
relative binding ratio [1]: 0.0002 ratio (IC50 of standard peptide / IC50 of test peptide)

B3: HER2/NEU A03 motif peptide, position 166, 10 amino acids (peptide)
peptide: TILWKDIFHK
notes: Synthetic peptide; also called Her2/neu.166
relative binding ratio (IC50 of standard peptide / IC50 of test peptide) [2]: 0.043 ratio

Binder: SVFQNLQVIR (Synthetic peptide) [HER2/NEU A03 motif peptide, position 423, 10 amino acids]
relative binding ratio (IC50 of standard peptide / IC50 of test peptide) [2]: 0.017 ratio

Binder: RMARDPQRF (Synthetic peptide) [HER2/NEU A03 motif peptide, position 978, 9 amino acids]
relative binding ratio (IC50 of standard peptide / IC50 of test peptide) [2]: 0.0001 ratio

Binder: FPSETDGYI [Her2/neu.1120.F1I9]
IC50 (HLA-B*5401 [3]): 156 nM
IC50 (HLA-B*5101 [4]): 31 nM
IC50 (HLA-B*3501 [5]): 655 nM
IC50 (HLA-B*0702 [6]): 220 nM
IC50 (HLA-B*5301 [7]): 37 nM

B5: Her2/neu.998.F1I11 (peptide)
peptide: FPLDSTFYRSI
notes: 11-mer analog of the HER2/neu peptide starting at position 998
IC50 (HLA-B*5401 [3]): 2.4 nM
IC50 (HLA-B*5101 [4]): 46 nM
IC50 (HLA-B*3501 [5]): 2670 nM
IC50 (HLA-B*0702 [6]): 229 nM
IC50 (HLA-B*5301 [7]): 620 nM

Binder: MPNPEGRYTI (analog peptide) [Her2/neu.282.I10]
IC50 (HLA-B*3501 [8]): 111 nM
IC50 (HLA-B*5301 [9]): 9.3 nM
IC50 (HLA-B*5401 [10]): 46 nM
IC50 (HLA-B*5101 [11]): 13 nM
IC50 (HLA-B*0702 [12]): 34 nM

Further lines, results first:

relative binding ratio [1]: 0.0004 ratio (IC50 of standard peptide / IC50 of test peptide)
Binder: AMPNQAQMR (also called Her2/neu.705 9-mer) [HER2/neu peptide, position 705, 9 amino acids (AMPNQAQMR)]

relative binding ratio [1]: 0.0003 ratio (IC50 of standard peptide / IC50 of test peptide)
Binder: CSKPCARVCY (also called Her2/neu.334 10-mer) [HER2/neu peptide, position 334, 10 amino acids (CSKPCARVCY)]

relative binding ratio (IC50 of standard peptide / IC50 of test peptide) (HLA-A*0301): 0.0002
B1: HER2/neu peptide, position 674, 10 amino acids (peptide)
peptide: LIKRRQQKIR
notes: Synthetic peptide; also called Her2/neu.674 (10-mer)

relative binding ratio [1]: 0.0003 ratio (IC50 of standard peptide / IC50 of test peptide)
Binder: AFSPAFDNLY (also called Her2/neu.1212 10-mer) [HER2/neu peptide, position 1212, 10 amino acids (AFSPAFDNLY)]

IC50 (HLA-B*5401 [3]): 200 nM
IC50 (HLA-B*5101 [4]): 579 nM
IC50 (HLA-B*3501 [5]): 10 nM
IC50 (HLA-B*0702 [6]): 3.7 nM
IC50 (HLA-B*5301 [7]): 10 nM
B2: Her2/neu.995.F1 (peptide)
peptide: FPASPLDSTF
notes: 10-mer analog of the HER2/neu peptide starting at position 995

IC50 (HLA-B*3501 [8]): 450 nM
IC50 (HLA-B*5301 [9]): 1690 nM
IC50 (HLA-B*5401 [10]): 36 nM
IC50 (HLA-B*5101 [11]): 1000 nM
IC50 (HLA-B*0702 [12]): 190 nM
Binder: FPCARVCYGL (analog peptide) [Her2/neu.336.F1]

relative binding ratio [1]: 0.0002 ratio (IC50 of standard peptide / IC50 of test peptide)
Binder: ASPLDSTFY [HER2/neu peptide, position 997, 9 amino acids (ASPLDSTFY)]

IC50 (HLA-B*5401 [3]): 50 nM
IC50 (HLA-B*5101 [4]): 56 nM
IC50 (HLA-B*3501 [5]): 600 nM
IC50 (HLA-B*0702 [6]): 108 nM
IC50 (HLA-B*5301 [7]): 274 nM
Binder: FPTHDPSPI [Her2/neu.1101.F1I9]

relative binding ratio [1]: 0.022 ratio (IC50 of standard peptide / IC50 of test peptide)
Binder: CVARCPSGVK (also called Her2/neu.596 10-mer) [HER2/neu peptide, position 596, 10 amino acids (CVARCPSGVK)]

IC50 (HLA-B*5401 [3]): 26 nM
IC50 (HLA-B*5101 [4]): 32 nM
IC50 (HLA-B*3501 [5]): 809 nM
IC50 (HLA-B*0702 [6]): 204 nM
IC50 (HLA-B*5301 [7]): 517 nM
Binder: FPSETDGYV [Her2/neu.1120.F1]

relative binding ratio (IC50 of standard peptide / IC50 of test peptide) (HLA-A*0301): 0.0003
B4: HER2/neu peptide, position 726, 10 amino acids (peptide)
peptide: LGSGAFGTVY
notes: Synthetic peptide; also called Her2/neu.726 (10-mer)

IC50 (HLA-B*5401 [3]): 2.7 nM
IC50 (HLA-B*5101 [4]): 324 nM
IC50 (HLA-B*3501 [5]): 400 nM
IC50 (HLA-B*0702 [6]): 42 nM
IC50 (HLA-B*5301 [7]): 1190 nM
B6: Her2/neu.998.F1 (peptide)
peptide: FPLDSTFYRSL
notes: as for B5

relative binding ratio [1]: -0.0008 ratio (IC50 of standard peptide / IC50 of test peptide)
Binder: CSPMCKGSR (also called Her2/neu.195 9-mer) [HER2/neu peptide, position 195, 9 amino acids (CSPMCKGSR)]

IC50 (HLA-B*3501 [8]): 24 nM
IC50 (HLA-B*5301 [9]): 6.6 nM
IC50 (HLA-B*5401 [10]): 3.2 nM
IC50 (HLA-B*5101 [11]): 9.3 nM
IC50 (HLA-B*0702 [12]): 324 nM
Binder: FPNPEGRYTI (analog peptide) [Her2/neu.282.F1]

relative binding ratio [1]: 0.0021 ratio (IC50 of standard peptide / IC50 of test peptide)
Binder: CAAGCTGPK (also called Her2/neu.240 9-mer) [HER2/neu peptide, position 240, 9 amino acids (CAAGCTGPK)]
